The target of the assay is human CD36 ectodomain (residues 35-439), C-terminal 8xHis and biotinylated BAP tag (human) (UniProt P16671). The experiment in a line: SPR; biotinylated CD36 (wild type or F153A) immobilised on a CAPture chip to ~700 RU; CIDRα domains as analytes, two-fold dilutions from 400 nM (Supplementary Figure 10: 400 nM only), 240 s injection, 300 s dissociation; 25 °C, 20 mM HEPES pH 7.5, 0.15 M NaCl, 0.005% Tween20; affinities from equilibrium binding, one site-binding model.
Sequence of human CD36 ectodomain (residues 35-439), C-terminal 8xHis and biotinylated BAP tag (human) (P16671 35-439): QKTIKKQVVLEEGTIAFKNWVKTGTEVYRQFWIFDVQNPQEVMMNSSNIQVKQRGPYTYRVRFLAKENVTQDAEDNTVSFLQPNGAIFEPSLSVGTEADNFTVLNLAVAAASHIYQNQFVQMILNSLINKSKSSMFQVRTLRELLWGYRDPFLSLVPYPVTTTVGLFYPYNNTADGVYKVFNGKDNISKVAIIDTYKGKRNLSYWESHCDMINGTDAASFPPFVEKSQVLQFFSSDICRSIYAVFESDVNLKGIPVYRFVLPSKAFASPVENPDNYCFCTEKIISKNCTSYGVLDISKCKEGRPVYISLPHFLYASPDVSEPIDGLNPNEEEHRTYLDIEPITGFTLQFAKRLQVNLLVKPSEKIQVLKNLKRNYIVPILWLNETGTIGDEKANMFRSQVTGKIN

On to “IT4var26 CIDRα3.3 domain (domain or fragment)”, for which the Kd (as a rule, the concentration at which binding is half-saturated) was 9.6 nM.

These data come from paper PMC5052687.
